Kd and IC50 data for three molecules are collected here from paper PMC11467045, “The hGID^GID4 E3 ubiquitin ligase complex targets ARHGAP11A to regulate cell migration” (Life Science Alliance, 2024).

Where no end group is shown, it is not given here.

Test [1] deals with T1, GID4^Δ1–115 (human, UniProt Q8IVV7 116-300).
T1 construct: also called recombinant GID4 lacking its N-terminal domain; source: E. coli Rosetta 2(DE3)pLysS, purified (Strep-Tactin, Ulp1 cleavage, size-exclusion chromatography); not shown: 2xStrepII, N-terminal, cleaved; Smt3, N-terminal, cleaved
T1 sequence (looked up): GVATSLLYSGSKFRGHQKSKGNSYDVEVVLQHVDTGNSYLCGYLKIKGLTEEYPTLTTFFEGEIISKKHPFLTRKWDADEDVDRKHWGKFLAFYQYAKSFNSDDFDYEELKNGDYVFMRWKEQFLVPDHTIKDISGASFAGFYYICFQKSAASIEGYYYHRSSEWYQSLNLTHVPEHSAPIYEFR
The test can be described thus: fluorescence polarisation; saturation binding: 20 nM TAMRA-labeled peptide with indicated GID4^Δ1–115 concentrations, 10 min, FP buffer (20 mM MOPS pH 7.6, 100 mM NaCl, 25 mM D-trehalose, 1% glycerol, 0.01% Triton X-100, 0.1 g/l BSA); one site-specific binding model. To be noted: both partners purified. (Polarisation of emitted light reports the rotation of a fluorescent probe.)

The target in test [2] is T1, GID4^Δ1–115. In words: fluorescence polarisation; competition: 20 μM GID4^Δ1–115 and 20 nM PGLWKS-TAMRA, 10 min with twofold dilutions of unlabeled peptides in FP buffer; log(inhibitor) versus response, variable slope. To be noted: both partners purified.

B1: PGLWKS-TAMRA (peptide)
peptide: PGLWKS-{TAMRA}
notes: control degron peptide (Dong et al, 2018); also called TAMRA-labeled control peptide PGLWKS
For the molecule B1, binding in test [1] was characterised by a dissociation constant (Kd) of 2.4 µM.

B2: PGKLRSDAG (peptide)
peptide: PGKLRSDAG
notes: amino terminus of DDX21 (Owens et al, 2024), without the initiator methionine; also called N-terminal peptide of DDX21
B2 registered an IC50 in test [2] of 83.4 µM. Consider PGLWKS (control degron peptide, unlabeled) [unlabeled PGLWKS], for which the IC50 in test [2] stood at 30.3 µM.

One may read the Kd as the free concentration of one partner at which half of the binding sites on the other are occupied at equilibrium, for simple one-to-one binding. Low values mean tighter binding, high ones weaker binding. Broadly, the IC50 is the point on the concentration scale where inhibition reaches its midpoint. Low values mean greater potency in that assay, high ones weaker potency in that assay.
